From US20170239346A1, “NOVEL COCAINE HAPTENS AND NANOFIBER-BASED COCAINE VACCINES” (priority 2016, published 2017) come the findings set out here.

A short description of this data set: Limulus amebocyte lysate (LAL) chromogenic end point endotoxin assay. The conditions noted are these: same volume and concentration used for immunizations.

Residues, ends and D or L forms follow the SMILES beside them. *: point of attachment. X1 = COC(=O)[C@H]1[C@@H](OC(=O)c2ccccc2)C[C@@H]2CC[C@H]1N2CCCCC(=O)*

On to `COC(=O)[C@H]1[C@@H](OC(=O)c2ccccc2)C[C@@H]2CC[C@H]1N2CCCCC(=O)NCC(=O)NCC(=O)NCC(=O)N[C@@H](Cc1ccccc1)C(=O)N[C@@H](CCCCN)C(=O)N[C@@H](Cc1ccccc1)C(=O)N[C@@H](CCC(=O)O)C(=O)N[C@@H](Cc1ccccc1)C(=O)N[C@@H](CCCCN)C(=O)N[C@@H](Cc1ccccc1)C(=O)N[C@@H](CCC(=O)O)C(N)=O` [CocKFE8] (X1-GGGFKFEFKFE-NH2), for which the endotoxin levels entry is “less than 0.1 EU/mL”.
